Reference: patent US20220389095A1 (AGENUS, published 2022)

Biological target: T1, human TIGIT (human, UniProt Q495A1 22-244)
T1 construct: whole, on cells; The assays used cell-surface TIGIT; also called T-cell immunoreceptor with Ig and ITIM domains; VSIG9
T1 sequence (looked up): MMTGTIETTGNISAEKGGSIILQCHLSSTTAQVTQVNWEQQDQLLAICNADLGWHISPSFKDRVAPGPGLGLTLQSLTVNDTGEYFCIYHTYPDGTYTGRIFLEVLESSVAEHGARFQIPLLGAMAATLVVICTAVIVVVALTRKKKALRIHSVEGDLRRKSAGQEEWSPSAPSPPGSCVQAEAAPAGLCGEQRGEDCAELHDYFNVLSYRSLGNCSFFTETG
Experiment: flow cytometry on anti-CD3-activated human PBMC, gated on CD4+ and CD8+ T cells
Protocol: After four days, the sample plates were centrifuged for two minutes at 2000 rpm and then supernatants were discarded. Samples were blocked with FcγR Block prepared in FACs buffer at 5 μL per 100 μL for 10 minutes. Sample plates were then centrifuged for two minutes at 2000 rpm and the supernatant was discarded. The cells were then resuspended in 100 μL of BA159 or a relevant isotype control antibody. To prepare antibodies, each antibody was diluted to 40 μg/mL in buffer for a final volume of 200 μL. Antibodies were then serially diluted 1 to 4 for a total of 12 dilutions ranging from 40 μg/mL to 0.00000954 μg/mL.
Cells were then resuspended in a cocktail of fluorescently labeled antibodies prepared in FACs buffer. 100 μL of antibody was add per well of a round-bottom 96-well plate. The sample plate was incubated for 20 minutes on ice. Cells were then washed by addition of cold sample buffer, centrifuged for two minutes at 2000 rpm, and supernatants were discarded. This wash was repeated once. […]
Antibody binding was measured by flow cytometry using a BD LSR Fortessa Flow Cytometer. […] 100,000 events were recorded for each sample. Samples were analyzed by sequentially gating on the following populations: FSC-A vs SSC-A, FSC-H vs FSC-A, SSC-A vs LIVE/DEAD, and CD4 vs CD8 Mean fluorescence intensity (MFI) was calculated.

- binding result: binds
B1: BA159 (antibody, human IgG1, lambda)
heavy: EVQLVQSGAEVKKPGSSVKVSCKASGYTFASYGISWVRQAPGQGLEWMGGITPFFNRVDVAEKFQGRVTITADKSTSTAYIELSSLRSEDTAVYYCARDLRRGGVGDAFDIWGRGTLVTVSSASTKGPSVFPLAPSSKSTSGGTAALGCLVKDYFPEPVTVSWNSGALTSGVHTFPAVLQSSGLYSLSSVVTVPSSSLGTQTYICNVNHKPSNTKVDKRVEPKSCDKTHTCPPCPAPELLGGPDVFLFPPKPKDTLMISRTPEVTCVVVDVSHEDPEVKFNWYVDGVEVHNAKTKPREEQYNSTYRVVSVLTVLHQDWLNGKEYKCKVSNKALPLPEEKTISKAKGQPREPQVYTLPPSREEMTKNQVSLTCLVKGFYPSDIAVEWESNGQPENNYKTTPPVLDSDGSFFLYSKLTVDKSRWQQGNVFSCSVMHEALHNHYTQKSLSLSPGK
light: QSALTQPRSVSGSPGQSVTISCTGTSSDVGSHNYVSWYQQHPGKAPKLMIYEVSYRPSGVSNRFSGSKSGNTASLTISGLQAEDEADYYCSSYTPSSATVFGAGTKLTVLGQPKAAPSVTLFPPSSEELQANKATLVCLISDFYPGAVTVAWKADSSPVKAGVETTTPSKQSNNKYAASSYLSLTPEQWKSHRSYSCQVTHEGSTVEKTVAPTECS
notes: also called anti-TIGIT antibody BA159
